According to patent US20090010876A1, “VISFATIN AND USES THEREOF” (THE TRUSTEES OF COLUMBIA UNIVERSITY IN THE CITY OF NEW YORK, priority 2007, published 2009):

Assays:
[1] = tested on: macrophages; assay: ER stress-mediated macrophage apoptosis, Alexa-488 annexin V staining; type: cell-based; conditions: pre-incubated with visfatin 24 h (FIG. 1A prints 1100 ng/ml, FIG. 1D ±100 ng/ml), then acetyl-LDL + 58035 (FC) 20 h or tunicamycin + fucoidan 24 h
Protocol: FIG. 1. […] FIG. 1A. Macrophages were pre-incubated 1100 ng/ml visfatin (vis) for 24 h and then incubated with 50 μg/ml acetyl-LDL+10 μg/ml 58035 (FC) for 20 h. Apoptosis was assayed by Alexa-488 annexin V staining (green). One representative image per condition was shown. FIG. 1B. The percentage of apoptosis was quantified (mean±SEM, n=8). FIG. 1C. Macrophages incubated in medium (con) or with visfatin (vis) for 24 h. Whole cell lysates were immunoblotted for the insulin receptor β (IRβ), SR-A, CD36 and β-actin. FIG. 1D. Macrophages were pre-incubated ±100 ng/ml visfatin (vis) for 24 h and then incubated with 5 μg/ml tunicamycin +25 μg/ml fucoidan (TN/F) for 24 h. Apoptosis was assayed and quantified as described in FIG. 1A and FIG. 1B.

[2] = tested on: unfolded protein response (UPR); assay: Immunoblot of UPR markers in ER-stressed macrophages; type: cell-based; conditions: for distal UPR effectors / distal UPR activation (CHOP, ATF3, XBP-1, ATF4): visfatin 24 h pre-incubation, then FC, 5 μM thapsigargin or 5 μg/ml tunicamycin 5 h, immunoblot
Protocol: FIG. 2. […] FIG. 2A. Macrophages were preincubated 1100 ng/ml visfatin (vis) for 24 h and then incubated with FC, 5 μM thapsigargin (TG), or 5 μg/ml tunicamycin (TN) for 5 h. Whole cell lysates were immunoblotted for CHOP, ATF3, and β-actin. FIG. 2B. Macrophages were pre-incubated ±100 ng/ml visfatin for 24 h and then incubated with 5 μg/ml TN for 5 h. The nuclear extracts were immunoblotted for XBP-1, ATF4, and nucleophosmin (loading control). FIG. 2C. Nuclei-free cell extracts from the above experiment were immunoblotted with antibodies against PERK, IRE1α, phospho-eIf2α, and β-actin.

[3] = tested on: ATF4; assay: ATF4 mRNA by RT-QPCR in FC-loaded macrophages; type: cell-based; conditions: visfatin 24 h pre-incubation, then acetyl-LDL + 58035 (FC); normalized with 36B4
Protocol: (§1) FIG. 3. […] FIG. 3A. Macrophages were preincubated ±1100 ng/ml visfatin (v) for 24 h and then incubated with 50 μg/ml acetyl-LDL+10 μg/ml 58035 (FC) for indicated times. Total RNA was extracted and subjected to RT-QPCR. The mRNA level of ATF4 was normalized with a control gene 36B4. FIG. 3B. Macrophages were pre-incubated for 24 h±100 ng/ml visfatin (vis) and then incubated for 5 h+5 μg/ml tunicamycin (TN). The cells were pulsed with [35S]methionine/cysteine in methionine-free medium for 15 min and then lysed in RIPA buffer. ATF4 was immunoprecipitated using a rabbit antibody immobilized to protein A/G beads. A normal rabbit IgG served as control. The immunoprecipitate was subjected to SDS-PAGE and autoradiography.

[4] = tested on: ATF4; assay: ATF4 protein synthesis, [35S]methionine/cysteine pulse and immunoprecipitation; type: cell-based; conditions: ±100 ng/ml visfatin 24 h, then 5 μg/ml tunicamycin 5 h, 15 min pulse
Protocol: as §1

[5] = tested on: insulin receptor; assay: CHOP immunoblot in macrophages from insulin receptor deficient and wild type mice; type: cell-based; conditions: IR−/− vs wt macrophages, ±100 ng/ml visfatin 24 h, then 5 μg/ml tunicamycin 5 h
Description: FIG. 4. […] Whole cell lysates were immunoblotted for CHOP and β-actin.

[6] = tested on: macrophages in mouse peritoneal cavity; assay: Acute UPR induction in mouse peritoneal macrophages in vivo, CHOP immunoblot; parameters: species or system Male C57/B6 mice; conditions: i.v. 5 mg recombinant visfatin, 24 h later i.p. 25 μg tunicamycin, harvest 12 h after, CHOP normalized against phospho-eIf2α
Protocol: FIG. 5. […] FIG. 5A. Male C57/B6 mice were subjected to intra-peritoneal (i.p.) injection of 1 ml of 4% thioglycolate to elicit peritoneal macrophages. Three days later, the mice were injected i.v. with 0.1 ml sterile saline ±5 mg recombinant visfatin (vis). Twenty-four hours later, these mice were injected i.p. with 0.5 ml 150 mM dextrose ±25 μg tunicamycin (TN). Twelve hours after TN injection, macrophages were harvested by peritoneal lavage and immediately lysed in RIPA buffer. The lysates were subjected to SDS-PAGE and immunoblotting for CHOP, phospho-eIf2α and β-actin. FIG. 5B. The intensity of CHOP bands were quantified and normalized against that of phospho-eIf2α.

[7] = tested on: atherosclerotic plaque formation; assay: Atherosclerotic plaque formation in susceptible mice on high cholesterol diet; type: in vivo; conditions: vs diluent alone, mice with reduced ApoE1 expression
Description: Recombinant visfatin polypeptides will be injected into mice susceptible to atherosclerotic plaque formation. In accordance with this prophetic example, the genome of these mice can comprise a transgenic modification wherein ApoE1 gene expression is reduced to levels that promote atherosclerosis. The mice will be continuously fed a high cholesterol diet to promote the formation of atherosclerotic lesions. One group of mice will be administered a pharmaceutically effective amount of visfatin polypeptide in a suitable diluent and another group of mice will be administered diluent alone and the incidence of atherosclerotic plaque formation will be compared between the two groups. The amount of visfatin polypeptide, the length of administration and the frequency of administration are variables that can readily be determine by an individual skilled in the art.

[8] = tested on: macrophages in atherosclerotic plaques; assay: Macrophage death in atherosclerotic plaques of susceptible mice; type: in vivo; conditions: vs diluent alone; mice with reduced ApoE1 expression, high cholesterol diet
Description: Recombinant visfatin polypeptides will be injected into mice susceptible to atherosclerotic plaque formation. In accordance with this prophetic example, the genome of these mice can comprise a transgenic modification wherein ApoE1 gene expression is reduced to levels that promote atherosclerosis. The mice will be continuously fed a high cholesterol diet to promote the formation of atherosclerotic lesions. One group of mice will be administered a pharmaceutically effective amount of visfatin polypeptide in a suitable diluent and another group of mice will be administered diluent alone and the amount of macrophage death in atherosclerotic plaques will be compared between the two groups. The amount of visfatin polypeptide, the length of administration and the frequency of administration are variables that can readily be determine by an individual skilled in the art.

[9] = tested on: ER stress related disease; assay: ER-stress related disease in susceptible mice; type: in vivo; conditions: vs diluent alone; mice susceptible to an ER-stress related disease

B1: visfatin: adipokine protein, having a molecular weight of about 52,000 daltons; polypeptide having SEQ ID NO:1 (protein, listed as Homo sapiens)
chain: MNPAAEAEFNILLATDSYKVTHYKQYPPNTSKVYSYFECREKKTENSKLRKVKYEETVFYGLQYILNKYLKGKVVTKEKIQEAKDVYKEHFQDDVFNEKGWNYILEKYDGHLPIEIKAVPEGFVIPRGNVLFTVENTDPECYWLTNWIETILVQSWYPITVATNSREQKKILAKYLLETSGNLDGLEYKLHDFGYRGVSSQETAGIGASAHLVNFKGTDTVAGLALIKKYYGTKDPVPGYSVPAAEHSTITAWGKDHEKDAFEHIVTQFSSVPVSVVSDSYDIYNACEKIWGEDLRHLIVSRSTQAPLIIRPDSGNPLDTVLKVLEILGKKFPVTENSKGYKLLPPYLRVIQGDGVDINTLQEVCVLY
For B1, the “ER-stress mediated apoptosis of macrophages” value [1] was “protects macrophages from ER-stress mediated apoptosis”, the “ER-stress mediated apoptosis of macrophages” value ([1]; listed as Visfatin) was “protects macrophages from ER stress-mediated apoptosis” and the “distal UPR effectors / distal UPR activation (CHOP, ATF3, XBP-1, ATF4)” value [2] was “directly targets distal UPR effectors”. For the same molecule, the “distal UPR effectors / distal UPR activation (CHOP, ATF3, XBP-1, ATF4)” value ([2]; listed as Visfatin) was “suppresses the distal UPR activation”, the “upstream UPR activators (PERK, IRE1α, phospho-eIf2α)” value ([2]; ±100 ng/ml visfatin 24 h, then 5 μg/ml tunicamycin 5 h, nuclei-free cell extracts) was “without inhibiting upstream UPR activators” and the “mRNA level of ATF4” value [3] was “intact”. The “translation of ATF4 / ATF4 protein synthesis” value [4] was “halted”, the “translation of ATF4 / ATF4 protein synthesis” value ([4]; listed as Visfatin) was “suppresses ATF4 protein synthesis” and the “UPR-suppressing effect, dependence on the insulin receptor” value [5] was “independent of the insulin receptor”. The “acute UPR induction in macrophages of the mouse peritoneal cavity” value ([6]; listed as Recombinant visfatin) was “suppresses the acute UPR induction of macrophages in mouse peritoneal cavity”, the “acute UPR induction in macrophages of the mouse peritoneal cavity” value ([6]; listed as recombinant visfatin) was “suppress acute UPR induction in macrophages of the mouse peritoneal cavity” and the “incidence of atherosclerotic plaque formation” value [7] was “lower incidence of atherosclerotic plaque formation”. The “amount of macrophage death in atherosclerotic plaques” value [8] was “lower amount of cell death” and the “incidence of the ER stress related disease” value [9] was “lower incidence of the ER stress related disease”.
